No end group written: not given here.
Tests used:
[1] = system: pseudotyped NL-Bal viruses; details: pseudotyped NL-Bal virus, single-cycle, JC53-BL cells
[2] = target: biotinylated HR1 peptide Biotin-T-2324 (HIV-1 gp41 HR1) (Human immunodeficiency virus type 1 group M subtype B, UniProt P04582, G556A); experiment: Binding affinity of HR2 containing polypeptides to HR1 by Surface Plasmon Resonance (BIAcore 3000); details: SPR, 25° C., immobilized HR1 peptide Biotin-T-2324, 1:1 Langmuir model
live NL-Bal viruses = type: cell-based, HIV-1; details: live NL-Bal virus, JC53-BL cells, luciferase activity

Procedure for HIV-1 JR-CSF virus: Human PBMC were isolated from buffy-coats (obtained from the Stanford Blood Center) by a Ficoll-Paque (Amersham, Piscataway, N.J., USA) density gradient centrifugation according to manufacturer's protocol. Briefly, blood was transferred from the buffy coats in 50 ml conical tubes and diluted with sterile Dulbecco's phosphate buffered saline (Invitrogen/Gibco) to a final volume of 50 ml. Twenty-five ml of the diluted blood was transferred to two 50 ml conical tubes, carefully underlayerd with 12.5 ml of Ficoll-Paque Plus (Amersham Biosciences) and centrifuged at room temperature for 20 min. at 450×g without braking. The white cell layer was carefully transferred to a new 50 ml conical tube and washed twice with PBS. To remove remaining red blood cells, cells were incubated for 5 min. at room temperature with ACK lysis buffer (Biosource) and washed one more time with PBS. PBMC were counted and incubated at a concentration of 2-4×10^6 cells/ml in RPMI1640 containing 10% FCS (Invitrogen/Gibco), 1% penicillin/streptomycin, 2 mM L-glutamine, 1 mM sodium-pyruvate, and 2 μg/ml Phytohemagglutinin (Invitrogen) for 24 h at 37° C. […] Virus production was measured at the end of infection by using p24 ELISA (HIV-1 p24 ELISA #NEK050B) using the sigmoid dose-response model with one binding site in Microsoft Excel Fit (version 3.0.5 Build12; equation 205; Microsoft).

Compound | Antiviral activity % Inhibition at 20 μg/mL [1] [%] | KA [2] [M⁻¹] | Kd [2] [nM] | ka [2] [M⁻¹ s⁻¹] | kd [2] [s⁻¹] | Antiviral activity % Inhibition at 20 μg/mL (live NL-Bal viruses) [%] | Antiviral activity IC50 ([1]; 3 day incubation, luciferase activity) [µg/mL] | Antiviral activity IC50 (HIV-1 JR-CSF virus) [µg/mL]
4976/4818: anti-IGF-1R IgG1: light chain 4976 with T-651 N-terminal (including variable domain), wt heavy chain 4818 (QIWNNMTWMEWDREINNYTSLIHSLIEESQNQQEKNEQELLGGGGSGGGGSGGGGSGAS; also: fused N-terminally to light chain of anti-IGF-1R IgG1) | 17 | 2.63e+10 | 0.038 | 923000 | 3.51e-05 | 38 | – | –
4972/4802: anti-IGF-1R IgG1: wt light chain 4802, heavy chain 4972 with T-2635 conjugated C-terminally via linker SEQ ID NO: 11 (GGGGSGGGGSGGGGSGGTTWEAWDRAIAEYAARIEALIRAAQEQQEKNEAALREL; also: fused C-terminally to heavy chain of anti-IGF-1R IgG1) | 27 | 1.01e+10 | 0.0987 | 786000 | 7.76e-05 | 43 | – | –
enfuvirtide | – | – | – | – | – | – | 0.38 | –
4970/4802: anti-IGF-1R IgG1: wt light chain 4802, heavy chain 4970 with T-651 conjugated C-terminally via linker SEQ ID NO: 11 (GGGGSGGGGSGGGGSGGNMTWMEWDREINNYTSLIHSLIEESQNQQEKNEQELL; also: fused C-terminally to heavy chain of anti-IGF-1R IgG1) | 15 | 9.11e+10 | 0.011 | 1.01e+06 | 1.11e-05 | 20 | – | –
CC[C@H](C)[C@H](NC(=O)[C@H](C)NC(=O)[C@H](CCCNC(=N)N)NC(=O)[C@H](CC(=O)O)NC(=O)[C@H](Cc1c[nH]c2ccccc12)NC(=O)[C@H](C)NC(=O)[C@H](CCC(=O)O)NC(=O)[C@H](Cc1c[nH]c2ccccc12)NC(=O)[C@@H](NC(=O)[C@@H](NC(C)=O)[C@@H](C)O)[C@@H](C)O)C(=O)N[C@@H](C)C(=O)N[C@@H](CCC(=O)O)C(=O)N[C@@H](Cc1ccc(O)cc1)C(=O)N[C@@H](C)C(=O)N[C@@H](C)C(=O)N[C@@H](CCCNC(=N)N)C(=O)N[C@H](C(=O)N[C@@H](CCC(=O)O)C(=O)N[C@@H](C)C(=O)N[C@@H](CC(C)C)C(=O)N[C@H](C(=O)N[C@@H](CCCNC(=N)N)C(=O)N[C@@H](C)C(=O)N[C@@H](C)C(=O)N[C@@H](CCC(N)=O)C(=O)N[C@@H](CCC(=O)O)C(=O)N[C@@H](CCC(N)=O)C(=O)N[C@@H](CCC(N)=O)C(=O)N[C@@H](CCC(=O)O)C(=O)N[C@@H](CCCCN)C(=O)N[C@@H](CC(N)=O)C(=O)N[C@@H](CCC(=O)O)C(=O)N[C@@H](C)C(=O)N[C@@H](C)C(=O)N[C@@H](CC(C)C)C(=O)N[C@@H](CCCNC(=N)N)C(=O)N[C@@H](CCC(=O)O)C(=O)N[C@@H](CC(C)C)C(N)=O)[C@@H](C)CC)[C@@H](C)CC [Compound T-2635] | – | – | – | – | – | – | – | 0.004
